Source: patent publication US20210355194A1

Molecular target: COVID S1 RBD Fc fusion (Antigen 1) (SARS-CoV-2), P0DTC2
Test: phage ELISA
Conditions: remark: other sources report otherwise

Binder	ELISA fold over background [fold]
SARS-CoV-2 variant 1-4 (antibody) chain 1: EVQLLESGGGLVQPGGSLRLSCAASGFTFSSQAMSWVRQAPGKGLEWVSAISGSGGGTYYADSVKGRFTISRDNSKNTLYLQMNSLRAEDTAVYYCAKDRRFGEFDPWGQGTLVTVSS chain 2: QSALTQPASVSGSPGQSITISCTGTSSDVGTYNLVSWYQQHPGKAPKLMIYEGSQRPSGVSNRFSGSKSGNTASLTISGLQAEDEADYYCCSYAGSSSFVVFGGGTKLTVL	1.4
SARS-CoV-2 variant 1-5 (antibody) chain 1: EVQLLESGGGLVQPGGSLRLSCAASGFTFSSQAMSWVRQAPGKGLEWVSAISGSGGGTYYADSVKGRFTISRDNSKNTLYLQMNSLRAEDTAVYYCAKDRRFGEFDPWGQGTLVTVSS chain 2: QSALTQPASVSGSPGQSITISCTGTSSGVGSYNLVSWYQQHPGKAPKLMIYEASKRPSGVSNRFSGSKSGNTASLTISGLQAEDEADYYCCSYAGSYTFAVFGGGTKLTVL	1.6
SARS-CoV-2 variant 1-31 (antibody) chain 1: EVQLLESGGGLVQPGGSLRLSCAASGFTFSSYAMNWVRQAPGKGLEWVSAISGSGGSTFYADSVKGRFTISRDNSKNTLYLQMNSLRAEDTAVYYCTRPPYGDYGDYWGQGTLVTVSS chain 2: QSALTQPASVSGSPGQSITISCTGTSSDVGKYNLVSWYQQHPGKAPKLMIYEGSQRPSGVSNRFSGSKSGNTASLTISGLQAEDEADYYCCSYAGSRTPVVFGGGTKLTVL	1.3
SARS-CoV-2 variant 1-28 (antibody) chain 1: EVQLLESGGGLVQPGGSLRLSCAASGFTFSSYGMSWVRQAPGKGLEWVSAISGSGGGTYYADSVKGRFTISRDNSKNTLYLQMNSLRAEDTAVYYCASSSSWQFDYWGQGTLVTVSS chain 2: QSALTQPASVSGSPGQSITISCTGTSSGVGSYNLVSWYQQHPGKAPKLMIYEGSQRPSGVSNRFSGSKSGNTASLTISGLQAEDEADYYCCSYAGSSTHYVFGGGTKLTVL	1.1
SARS-CoV-2 variant 1-30 (antibody) chain 1: EVQLLESGGGLVQPGGSLRLSCAASGFTFSSYAMTWVRQAPGKGLEWVSAISGSGGSTFYADSVKGRFTISRDNSKNTLYLQMNSLRAEDTAVYYCTRPPYGDYGDYWGQGTLVTVSS chain 2: QSALTQPASVSGSPGQSITISCTGTSRDVGSYNLVSWYQQHPGKAPKLMIYEGTKRPSGVSNRFSGSKSGNTASLTISGLQAEDEADYYCCSYAGSRTPVVFGGGTKLTVL	1.7
SARS-CoV-2 variant 1-3 (antibody) chain 1: EVQLLESGGGLVQPGGSLRLSCAASGFTFSSQAMSWVRQAPGKGLEWVSAISGSGGGTYYADSVKGRFTISRDNSKNTLYLQMNSLRAEDTAVYYCAKDRRFGEFDPWGQGTLVTVSS chain 2: QSALTQPASVSGSPGQSITISCTGISSDVGSYNLVSWYQQHPGKAPKLMIYEGTKRPSGVSNRFSGSKSGNTASLTISGLQAEDEADYYCCSYAGSSSFVVFGGGTKLTVL	1.8
SARS-CoV-2 variant 1-32 (antibody) chain 1: EVQLLESGGGLVQPGGSLRLSCAASGFTFSSYAMYWVRQAPGKGLEWVSAISGSGGSTFYADSVKGRFTISRDNSKNTLYLQMNSLRAEDTAVYYCTRPPYGDYGDYWGQGTLVTVSS chain 2: QSALTQPASVSGSPGQSITISCTGTSSDVGGYNLVSWYQQHPGKAPKLMIYEGNKRPSGVSNRFSGSKSGNTASLTISGLQAEDEADYYCCSYAGSSTFPVVFGGGTKLTVL	1.5
SARS-CoV-2 variant 1-49 (antibody) chain 1: EVQLLESGGGLVQPGGSLRLSCAASGFTFSSYAMYWVRQAPGKGLEWVSAISGSAGSTYYADSVKGRFTISRDNSKNTLYLQMNSLRAEDTAVYYCARDTNDFWGQGTLVTVSS chain 2: QSALTQPASVSGSPGQSITISCTGTSSDIGSYNLVSWYQQHPGKAPKLMIYEGTKRPSGVSNRFSGSKSGNTASLTISGLQAEDEADYYCCSYAGSRTYVFGGGTKLTVL	1
